Reference: publication PMC6472409, “Dishevelled-3 conformation dynamics analyzed by FRET-based biosensors reveals a key role of casein kinase 1” (Nature Communications, 2019)
Numbering of substitutions follows the chain as printed. Names may count otherwise. Blank lines part the entries; values can stand above or below the molecule they belong to.

Assays:
[1] = tested on: DVL3 membrane recruitment by FZD6 in HEK293 cells; assay: FZD6-dependent membrane recruitment of DVL3, immunofluorescence; format: cell-based, human; set-up: key to Non-recruited (DVL3 membrane recruitment): number of cells out of 100 positive cells scored; settings: Fig 8c
Description: First, we analyzed the preferred subcellular localization of DVL3 (as introduced in Fig. 2c)[10],[14]. […] Next, we investigated if DVL3 conformation correlates with the capacity of DVL3 to be recruited by FZD6, a key Wnt receptor, to the plasma membrane. For this purpose, we co-expressed FZD6 and analyzed membrane recruitment of DVL3 in FZD6-positive cells by immunofluorescence. Individual cells were categorized as: not recruited (Fig. 8b, no DVL3 in the membrane), partially recruited (clear membrane as well as cytoplasmic localization), and fully recruited (predominantly plasma membrane localization, Fig. 8c, left). […] In the last readout we analyzed the capacity of DVL3 to activate downstream Wnt/β-catenin pathway monitored by TopFlash reporter assay (Fig. 8d). […] On the other hand, under conditions that favor the open conformation both activation as well as inhibition of the Wnt/β-catenin pathway was evident.
For immunofluorescence, cells were seeded (40,000 per well) on 24-well plates with gelatin-coated coverslips and transfected, as indicated, with 0.1 μg of each corresponding plasmid (0.3 μg of mCherry-FZD6) for 6 h. For western blotting and Dual Luciferase TopFlash/Renilla Reporter Assay, cells were seeded (60,000 per well) directly on 24-well plates with 0.1 μg of each corresponding plasmid (if not indicated otherwise) for 6 h. For coimmunoprecipitation, cells were seeded (4.4 × 10^6) on 10-cm dishes and transfected with 1 μg of each corresponding plasmid. The next day after seeding, cells were transfected using polyethyleneimine (PEI) in a stoichiometry of 6 μl of PEI per 1 μg of DNA for 6 h and were harvested 24 h after transfection. The following plasmids used in HEK293 cells have been described previously: FLAG-DVL3 wt[47], CK1ϵ wt[48], mCherry-FZD6 (ref. [37]), and dominant-negative CK1ϵ P3 (ref. [33]). The ECFP-DVL3 wt plasmid was made by Gateway Technology (via LR recombination according to the manufacturer’s instructions; Thermo Fisher Scientific, #11791020) from the donor plasmid pDONR221 DVL3 (DNASU, #FLH178665.01x) and the destination plasmid pdECFP (LMBP, #4548). The HA-DVL3 wt plasmid was made by Gateway Technology from the donor plasmid pDONR221 DVL3 (DNASU, #FLH178665.01x) and the destination plasmid pcDNA3.1 N-term HA (gift from Erich Nigg).
Cells were seeded on gelatin-coated coverslips in 24-well plates and were transfected the next day. Cells were fixed 24 h later in fresh 4% paraformaldehyde, permeabilized with 0.5% Triton X-100, blocked with PBS/BSA/Triton/Azide buffer (PBTA) [3% (wt/vol) BSA, 0.25% Triton, 0.01% NaN3] for 1 h, and incubated overnight with primary antibodies (in dilution 1:500) in PBTA at 4 °C. The next day, the coverslips were washed in PBS and incubated with secondary antibodies conjugated to Alexa Fluor 488 (Invitrogen A11001) or/and Alexa Fluor 594 (Invitrogen A11058) (all in dilution 1:1000), washed with PBS [in case of samples containing FLAG-DVL3 WT and derived variants stained with DAPI (1:5000)], and all coverslips were mounted on microscopic slides. Cells were then visualized on an Olympus IX51 fluorescent microscope using ×40 air or ×100 oil objectives and/or an Olympus Fluoview 500 confocal laser scanning microscope IX71 using ×100 oil objective. One hundred positive cells per experiment (n = 3) were analyzed and scored according to their phenotype into two/three categories (punctae/even); or non-recruited/partially/fully recruited for FZD6-dependent recruitment of DVL3. The antibodies used were as follows: anti-FLAG M2 (Sigma-Aldrich, #F1804), anti-DVL3 (Santa Cruz, #sc-8027), anti-CK1ɛ (Santa Cruz, #sc-6471), anti-RFP (Chromotek, #5h9) and anti-GFP (Fitzgerald, #20R-GR-011).

Wnt/β-catenin pathway = assay: Dual Luciferase TopFlash/Renilla Reporter Assay; format: cell-based, human; settings: Fig 8d
Procedure: Cells were transfected 24 h after seeding with 0.1 μg of Super8X TopFlash construct, 0.1 μg of Renilla luciferase construct, and 0.1 μg of corresponding plasmids per well for 6 h in a 24-well plate. As for the ECFP-DVL3 FIII wt stable cell lines, transfection was followed by 4 h induction of tetracycline (1 µg/ml) and 8 h treatment of CM:DMEM (1:1 ratio). For performing this assay, Promega Dual Luciferase assay kit (Promega, #E1910) was used according to the manufacturer’s instructions. Luminescence was measured by a Hidex Bioscan Plate Chameleon Luminometer. Results are depicted as the ratio of TopFlash and Renilla signal (TopFlash fold induction), which was normalized for each experiment to certain control column (normalized TopFlash fold induction). Data were analyzed by MS Excel 2007 and GraphPad Prism 6 and results were shown as the means ± S.D. (number of experiments indicated ad hoc).

TopFlash relative to DVL3 wt (= 1) (Wnt/β-catenin pathway; replicate of grid row r4): 0.2512
TopFlash relative to DVL3 wt (= 1) (Wnt/β-catenin pathway; replicate of grid row r5): 0.4095
TopFlash relative to DVL3 wt (= 1) (Wnt/β-catenin pathway; replicate of grid row r6): 0.2391
TopFlash relative to DVL3 wt (= 1) (Wnt/β-catenin pathway; replicate of grid row r7): 0.3021
TopFlash relative to DVL3 wt (= 1) (Wnt/β-catenin pathway; replicate of grid row r8): 0.4946
TopFlash relative to DVL3 wt (= 1) (Wnt/β-catenin pathway; replicate of grid row r9): 0.4126
TopFlash relative to DVL3 wt (= 1) (Wnt/β-catenin pathway; replicate of grid row r10): 0.6059
TopFlash relative to DVL3 wt (= 1) (Wnt/β-catenin pathway; replicate of grid row r11): 0.4276
TopFlash relative to DVL3 wt (= 1) (Wnt/β-catenin pathway; replicate of grid row r12): 0.421
TopFlash relative to DVL3 wt (= 1) (Wnt/β-catenin pathway; replicate of grid row r13): 0.43
TopFlash relative to DVL3 wt (= 1) (Wnt/β-catenin pathway; replicate of grid row r14): 0.3266
B1: DVL3 S268A/S311A (protein, UniProt Q92997 1-716, looked up, variant S268A S311A)
Segment polarity protein …: MGETKIIYHLDGQETPYLVKLPLPAERVTLADFKGVLQRPSYKFFFKSMDDDFGVVKEEISDDNAKLPCFNGRVVSWLVSAEGSHPDPAPFCADNPSELPPPMERTGGIGDSRPPSFHPHAGGGSQENLDNDTETDSLVSAQRERPRRRDGPEHATRLNGTAKGERRREPGGYDSSSTLMSSELETTSFFDSDEDDSTSRFSSSTEQSSASRLMRRHKRRRRKQKVSRIERSSSFSSITDSTMSLNIITVTLNMEKYNFLGISIVGQANERGDGGIYIGSIMKGGAVAADGRIEPGDMLLQVNEINFENMANDDAVRVLREIVHKPGPITLTVAKCWDPSPRGCFTLPRSEPIRPIDPAAWVSHTAAMTGTFPAYGMSPSLSTITSTSSSITSSIPDTERLDDFHLSIHSDMAAIVKAMASPESGLEVRDRMWLKITIPNAFIGSDVVDWLYHNVEGFTDRREARKYASNLLKAGFIRHTVNKITFSEQCYYIFGDLCGNMANLSLHDHDGSSGASDQDTLAPLPHPGAAPWPMAFPYQYPPPPHPYNPHPGFPELGYSYGGGSASSQHSEGSRSSGSNRSGSDRRKEKDPKAGDSKSGGSGSESDHTTRSSLRGPRERAPSERSGPAASEHSHRSHHSLASSLRSHHTHPSYGPPGVPPLYGPPMLMMPPPPAAMGPPGAPPGRDLASVPPELTASRQSFRMAMGNPSEFFVDVM
Non-recruited (DVL3 membrane recruitment) ([1]; exp1): 79
Partially recruited (DVL3 membrane recruitment) ([1]; exp1): 19
Fully recruited (DVL3 membrane recruitment) ([1]; exp2): 11
Non-recruited (DVL3 membrane recruitment) ([1]; exp2): 54
Partially recruited (DVL3 membrane recruitment) ([1]; exp2): 35
Fully recruited (DVL3 membrane recruitment) ([1]; exp3): 16
Non-recruited (DVL3 membrane recruitment) ([1]; exp3): 68
Partially recruited (DVL3 membrane recruitment) ([1]; exp3): 16

TopFlash relative to DVL3 wt (= 1) (Wnt/β-catenin pathway; replicate of grid row r4): 0.8175
TopFlash relative to DVL3 wt (= 1) (Wnt/β-catenin pathway; replicate of grid row r5): 1.687
TopFlash relative to DVL3 wt (= 1) (Wnt/β-catenin pathway; replicate of grid row r6): 1.081
TopFlash relative to DVL3 wt (= 1) (Wnt/β-catenin pathway; replicate of grid row r7): 0.9973
TopFlash relative to DVL3 wt (= 1) (Wnt/β-catenin pathway; replicate of grid row r8): 0.619
TopFlash relative to DVL3 wt (= 1) (Wnt/β-catenin pathway; replicate of grid row r9): 0.5939
TopFlash relative to DVL3 wt (= 1) (Wnt/β-catenin pathway; replicate of grid row r10): 0.8497
TopFlash relative to DVL3 wt (= 1) (Wnt/β-catenin pathway; replicate of grid row r11): 1.052
TopFlash relative to DVL3 wt (= 1) (Wnt/β-catenin pathway; replicate of grid row r12): 1.009
TopFlash relative to DVL3 wt (= 1) (Wnt/β-catenin pathway; replicate of grid row r13): 1.108
TopFlash relative to DVL3 wt (= 1) (Wnt/β-catenin pathway; replicate of grid row r14): 1.265
B2: DVL3 S268E/S311E (protein, UniProt Q92997 1-716, looked up, variant S268E S311E)
Segment polarity protein …: B1 Segment polarity protein … with A268E, A311E
Fully recruited (DVL3 membrane recruitment) ([1]; exp1): 11
Non-recruited (DVL3 membrane recruitment) ([1]; exp1): 52
Partially recruited (DVL3 membrane recruitment) ([1]; exp1): 37
Fully recruited (DVL3 membrane recruitment) ([1]; exp2): 20
Non-recruited (DVL3 membrane recruitment) ([1]; exp2): 49
Partially recruited (DVL3 membrane recruitment) ([1]; exp2): 31
Fully recruited (DVL3 membrane recruitment) ([1]; exp3): 10
Non-recruited (DVL3 membrane recruitment) ([1]; exp3): 60
Partially recruited (DVL3 membrane recruitment) ([1]; exp3): 30
